Source: the supplement of paper PMC10567573

B1: KCNK9 (parent)
chain: DVPDLQSVCSCTCYRSQDYGGRSV
B2: INTS3 (parent)
chain: KKREFRFHPIKETVVEEPVDITPY

Variants of: B1
Experiment: protein stability index of a GFP-peptide fusion (GPS, HEK-293T) (PSI 1-6); higher = more stable
Conditions: c terminus: a fixed tail appended
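Further: lentivirally expressed fusions sorted by FACS into six bins by GFP to DsRed ratio, PSI derived from sequencing read proportions per bin multiplied by bin number.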

Protein stability index: each site, then its substitutions
V24: E 2.15, D 2.69, Y 1.49, C 1.49, N 2.5, H 1.64, F 1.13, W 2.42, I 2.37, T 2.73, S 1.68, Q 1.72, P 2.35, L 2.44, A 1.68, K 1.45
Y19: T 2.64, C 1.88, Q 2.44, A 1.88, D 2.41, E 2.02, K 2.1, P 1.86, S 1.81, V 1.66, N 1.71, M 1.83, H 2.27, R 2.08, G 1.58, I 2.18, F 2.25
R22: W 2.4, V 2.82, S 2.2, A 1.84, D 3.58, K 3.06, H 2.43, M 2.04, Q 3.22, I 1.93, C 2.38, N 2.6, Y 1.47, P 2.16, E 3.3, F 1.33, L 3.27, T 1.89, G 2.06
G21: P 2.06, H 1.9, T 2.63, Q 1.4, V 2.16, K 1.9, L 1, A 1.85, F 1.81, Y 2.08, R 1.62, D 2.22, S 3.41
D18: P 1.67, C 1.97, S 2.33, Y 1.56, H 2.85, L 1.73, F 1.2, T 1.83, W 1.61, N 2.08, R 1.36, M 1.63, Q 1.51, V 1.82, K 1.65, E 1.21
Q17: W 2.44
S23: F 2.11, V 1.32, W 2.53, H 1.67, N 2.14, K 4.09, C 1.98, Q 2.12, D 2.1, I 3.17, R 1.48, L 2.27, G 2.96, A 1.8, Y 2.59
G20: Y 2.8, K 2.37, T 1.87, F 1.35, I 2.15, N 2.03, V 1.2, A 2.24, C 2.26, H 2.88, P 2.03, L 1.67, D 2.88, Q 1.94, S 2.07, E 1.97

Variants of: B2
Experiment: as above
Conditions: c terminus: a fixed tail appended

Protein stability index: each site, then its substitutions
P23: K 1.99, G 3.45, N 1.84, Q 1.88, D 2.04, F 1.67, Y 2.87, H 1.74, T 1.46, V 1.44, E 3.24
D20: L 1.56, E 2.35, V 1.65, M 1.96, H 2.25, N 2.2, C 1.61, I 1.7, S 1.04
P9: H 2.83, I 2.18, V 2.63, A 2.5, T 2.42, C 2.03
I10: N 2.84, Q 1.83, M 1.87, K 2.02, R 1.41, T 2.27, G 2.3, Y 4.54, E 2.4
T13: W 2.56, M 1.57, P 1.75, S 1.55, H 2.06, C 2.38, D 2.19
R3: S 1.66, P 1.66, A 1.82, W 1.44, I 2.25, M 1.43, K 2.46, D 2.84
R6: W 2.55, Q 4.23, S 4.31, V 3.49, D 4.24, K 4.23, E 4.48, N 4.25
V15: I 1.67, Q 2, E 2.41, T 1.75, S 1.58, Y 1.84, L 1.73
F7: P 4.58, Q 4.24, I 4.23, A 4.76, V 4.65, G 4.71, R 4.6, E 4.62
I21: R 1.59, W 2.1, V 2.63, C 2.01, E 2.37, Q 2.43, P 2.5, Y 1.56, A 1.76, H 1.59
E17: W 2.46, K 1.43, D 1.79, G 2.26, H 1.62, L 2.15, Y 2.06, C 1.97, A 1.79, Q 2.42, S 2.24, P 1.59
P18: E 2.05, T 1.36, L 1.85, G 1.79, A 1.87, D 2.12, Y 3.25, I 1.64, W 2.29, Q 2.06, S 1.79, M 1.99, H 1.74
V19: S 2.25, L 1.7, E 2.28, A 2.67, C 2.01, R 2.37, W 1.38, Y 2.28, T 1.88
K11: A 1.82, L 2.72, G 2.04, R 1.88, W 1.61, N 1.71, C 2.15, F 2.56, Y 2.7, S 2.31
K2: W 2.03, C 1.9, V 1.37, Q 2.17, Y 1.6, A 1.56, D 2.53, M 2.2, S 2.38, N 1.82
V14: T 1.42, S 3.05, M 2.19, R 1.35, L 1.82, A 1.52, W 1.91, K 1.53, Y 1.89, H 1.89, D 2.58
E12: T 1.39, W 2.98, R 1.94, A 1.97, I 2.61, G 2.93, M 2.43, C 2.05, H 2.17, Q 2.48, P 1.92, Y 2
H8: V 2.49, Y 3.43, F 3.49, I 2.8, Q 3.45, G 3.93
F5: R 4.56, N 4.53, M 4.36, D 4.4, G 4.34, C 4.39, I 4.06, E 4.8
E4: D 2.06, S 1.33, Y 1.81, T 2.07, Q 2.36, M 2.04, R 2.86, G 1.54, F 1.94
T22: N 1.72, F 2.57, C 1.82, E 1.97, R 1.99, S 2.33, Y 2.26
Y24: G 2.44, V 2.26, W 1.88, R 1.47, Q 2.04, A 2.59, L 2.17, F 2.18, D 2.44, S 1.84, N 2.03, I 2.33
K1: M 1.96, E 2.27, H 1.73, V 2.74, L 2.25, C 1.81, T 2.01, A 2.29, Q 1.97, P 1.66
E16: S 1.82, C 2.46, V 1.95, D 2.18, H 1.83, Y 2.36, Q 1.86, A 1.73, T 2.16
